Results on 3 substances are retold here after article PMC3160658.

In series [1] the target is T1, RAD52 (Homo sapiens) (UniProt P43351).
T1 sequence: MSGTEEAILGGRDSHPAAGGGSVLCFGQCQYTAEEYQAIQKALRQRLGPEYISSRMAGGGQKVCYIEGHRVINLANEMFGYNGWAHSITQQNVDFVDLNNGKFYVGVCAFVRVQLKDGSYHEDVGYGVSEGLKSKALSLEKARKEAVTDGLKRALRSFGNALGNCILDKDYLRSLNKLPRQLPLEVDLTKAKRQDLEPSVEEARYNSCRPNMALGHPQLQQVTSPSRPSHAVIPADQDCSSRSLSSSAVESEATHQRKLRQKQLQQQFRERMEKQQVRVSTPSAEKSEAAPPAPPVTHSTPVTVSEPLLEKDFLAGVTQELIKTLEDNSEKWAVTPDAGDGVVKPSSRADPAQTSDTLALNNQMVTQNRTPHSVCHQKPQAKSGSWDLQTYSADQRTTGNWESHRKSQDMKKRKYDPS
Nature of the series: single-molecule FRET. To be noted: amino modifier C6 dT at last dT of gap.

The target of series [2] is RAD52 Y104pCMF Y104pCMF (Homo sapiens) (UniProt P43351). As to the kind of experiment: single-molecule FRET. The following applies: amino modifier C6 dT at last dT of gap.
Series [3] has the same target. Nature of the series: FRET titration. To be noted: scale: nM protein at maximum FRET.
Series [4] deals with T1, RAD52 (Homo sapiens). As to the kind of experiment: competition.

For the substance “TATGCTCTAAGCCATCCATGTATTTTTTTTTTTTTTTTTTTTTTTTTTTTCCCTAGATACCAGTAGATTCGGAAA / TTTCCGAATCTACTGGTATCTAGGG / TACATGGATGGCTTAGAGCATA [gapped DNA, 28-nt (dT) gap]”, the figures for the binding signal (% molecules in high FRET (wrapped) state) (with RAD52 (Homo sapiens) [1]; in series [2]) were 9.47 and 43.5, respectively. “TTTTTTTTTTTTTTTTTTTTTTTTTTTTTT [Cy5-(dT)30-Cy3]”: in series [3], the binding signal stood at 5. Take linearized PhiX174 RFI dsDNA: in the series with RAD52 (Homo sapiens) [4], the binding signal (% ssDNA released at 150 nM nt dsDNA) is 95.1.
